Molecular target: T1, rhMer/Fc Chimera (recombinant human MERTK extracellular domain conjugated to an IgG Fc domain) (human, UniProt Q12866 21-505)
T1 construct: extracellular domain; also called hMER recombinant protein; Mer-Fc conjugate; not shown: IgG Fc domain
T1 sequence (looked up): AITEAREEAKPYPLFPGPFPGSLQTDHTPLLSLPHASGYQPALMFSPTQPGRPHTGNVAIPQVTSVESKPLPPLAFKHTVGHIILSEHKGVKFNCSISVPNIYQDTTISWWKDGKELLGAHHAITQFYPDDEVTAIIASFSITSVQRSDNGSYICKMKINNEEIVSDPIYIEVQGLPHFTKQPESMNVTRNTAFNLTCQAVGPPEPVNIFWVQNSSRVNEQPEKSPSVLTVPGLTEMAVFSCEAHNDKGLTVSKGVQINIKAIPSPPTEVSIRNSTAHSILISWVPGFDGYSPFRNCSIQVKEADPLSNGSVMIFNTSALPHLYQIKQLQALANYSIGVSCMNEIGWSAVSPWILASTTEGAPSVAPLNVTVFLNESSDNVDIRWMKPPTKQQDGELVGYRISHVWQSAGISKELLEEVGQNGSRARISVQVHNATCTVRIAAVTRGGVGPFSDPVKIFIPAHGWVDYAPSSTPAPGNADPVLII
Experiment: SPR, avidity format: rhMer/Fc Chimera immobilised on CM5 chip, antibody as analyte, 1:1 fit
Experimental: With respect to avidity and affinity measurements using SPR, the protocols below were used.
The activator was prepared with a mixture of 400 mM EDC and 100 mM NHS immediately prior to injection. The CM5 sensor chip was activated for 420 s with the mixture. […] The chip was deactivated by 1 M ethanolamine-HCl. […] 8 concentrations (0.3125, 0.625, 1.25, 2.5, 5, 10, 20 and 40 nM) of the antibodies and running buffer were injected at a flow rate of 30 μL/min for an association phase of 240 s, followed by 4800 s dissociation. 10 mM glycine pH 1.5 as regeneration buffer was injected following every dissociation phase. The chip was regenerated with 10 mM glycine pH 1.5. One surface channel without capturing ligand was used as control surface for reference subtraction. Final data of each interaction was deducted from reference channel and buffer channel data. […] A molecular weight of 150 kDa was used to calculate the molar concentration of the antibodies.

Kd: 5.74 pM
B1: z10 antibody (antibody, human IgG1, kappa, V domains shown)
VH: QVQLVQSGAEVKKPGASVKVSCKASGYTFTNYGMNWVRQAPGQGLEWMGWINTYTGEPTYADDFKGRVTFTTDTSTSTAYMELRSLRSDDMAVYYCARKSTVVSRYFDVWGQGTTVTVSS
VL: DIQMTQSPSFLSASVGDRVTITCKASQDVGDAVTWYQQKPGKAPKLLIYWASTRHTGVPDRFSGSGSGTDFTLTISSLQPEDFATYYCQQYRSYPLTFGQGTKLEIKR
notes: also called MERTK (z10) antibody

Source: US20200291135A1 (INSPIRNA, published 2020)
